Among the targets are lerl1_human LEPROTL1 (UniProt O95214); npal3_human NIPAL3 (UniProt Q6P499); pls1_human PLSCR1 (UniProt O15162); zmat1_human ZMAT1 (UniProt Q5H9K5); cryaa_human CRYAA (UniProt P02489); phs_human PCBD1 (UniProt P61457); ei2ba_human EIF2B1 (UniProt Q14232); dpyl2_human DPYSL2 (UniProt Q16555); zsc32_human ZSCAN32 (UniProt Q9NX65); pacn1_human PACSIN1 (UniProt Q9BY11); elmo1_human ELMO1 (UniProt Q92556); emp3_human EMP3 (UniProt P54852); ppla_human PLN (UniProt P26678); mal_human MAL (UniProt P21145); vatl_human ATP6V0C (UniProt P27449); clip4_human CLIP4 (UniProt Q8N3C7); klhl2_human KLHL2 (UniProt O95198); BCL2L13 (UniProt Q9BXK5); trip6_human TRIP6 (UniProt Q15654); bnip3_human BNIP3 (UniProt Q12983); sufu_human SUFU (UniProt Q9UMX1); nasp_human NASP (UniProt P49321).

The next assay deals with T1, prdx3_human PRDX3 (UniProt P30048).
T1 sequence: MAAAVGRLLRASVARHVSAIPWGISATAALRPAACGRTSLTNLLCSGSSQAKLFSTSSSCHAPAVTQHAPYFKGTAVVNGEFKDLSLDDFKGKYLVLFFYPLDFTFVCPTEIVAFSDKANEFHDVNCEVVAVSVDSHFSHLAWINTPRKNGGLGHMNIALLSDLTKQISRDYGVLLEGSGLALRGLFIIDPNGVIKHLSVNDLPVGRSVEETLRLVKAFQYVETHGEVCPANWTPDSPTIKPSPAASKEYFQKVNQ

For a further assay, the target named is T2, acy3_human ACY3 (UniProt Q96HD9).
T2 sequence: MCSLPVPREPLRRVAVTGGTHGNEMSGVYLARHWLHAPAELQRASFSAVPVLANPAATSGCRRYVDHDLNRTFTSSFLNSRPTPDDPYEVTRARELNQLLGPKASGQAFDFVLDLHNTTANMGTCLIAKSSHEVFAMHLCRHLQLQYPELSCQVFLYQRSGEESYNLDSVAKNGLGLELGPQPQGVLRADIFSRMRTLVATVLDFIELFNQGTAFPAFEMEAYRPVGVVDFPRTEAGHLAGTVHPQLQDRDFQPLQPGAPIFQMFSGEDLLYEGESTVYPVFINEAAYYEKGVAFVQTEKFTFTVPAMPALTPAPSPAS

A further assay concerns the target T3, dmc1_human DMC1 (UniProt Q14565).
T3 sequence: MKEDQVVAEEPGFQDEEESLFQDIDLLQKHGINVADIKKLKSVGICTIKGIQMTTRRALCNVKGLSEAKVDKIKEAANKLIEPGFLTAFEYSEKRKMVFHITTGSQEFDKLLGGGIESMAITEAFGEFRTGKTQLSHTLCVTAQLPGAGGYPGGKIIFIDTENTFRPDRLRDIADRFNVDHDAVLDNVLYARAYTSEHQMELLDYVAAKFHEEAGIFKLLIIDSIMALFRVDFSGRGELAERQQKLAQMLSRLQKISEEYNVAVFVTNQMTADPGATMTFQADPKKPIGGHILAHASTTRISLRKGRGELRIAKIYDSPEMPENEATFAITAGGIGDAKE

The next assay addresses T4, rnps1_human RNPS1 (UniProt Q15287).
T4 sequence: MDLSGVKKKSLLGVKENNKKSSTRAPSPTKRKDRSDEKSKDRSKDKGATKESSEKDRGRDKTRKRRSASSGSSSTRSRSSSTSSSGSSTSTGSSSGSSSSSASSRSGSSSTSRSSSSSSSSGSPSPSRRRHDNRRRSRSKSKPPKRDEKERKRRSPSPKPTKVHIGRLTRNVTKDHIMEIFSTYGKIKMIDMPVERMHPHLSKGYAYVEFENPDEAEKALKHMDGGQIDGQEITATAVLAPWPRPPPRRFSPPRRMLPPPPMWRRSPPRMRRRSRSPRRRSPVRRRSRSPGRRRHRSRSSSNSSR

A further assay deals with T5, lc7l2_human LUC7L2 (UniProt Q9Y383).
T5 sequence: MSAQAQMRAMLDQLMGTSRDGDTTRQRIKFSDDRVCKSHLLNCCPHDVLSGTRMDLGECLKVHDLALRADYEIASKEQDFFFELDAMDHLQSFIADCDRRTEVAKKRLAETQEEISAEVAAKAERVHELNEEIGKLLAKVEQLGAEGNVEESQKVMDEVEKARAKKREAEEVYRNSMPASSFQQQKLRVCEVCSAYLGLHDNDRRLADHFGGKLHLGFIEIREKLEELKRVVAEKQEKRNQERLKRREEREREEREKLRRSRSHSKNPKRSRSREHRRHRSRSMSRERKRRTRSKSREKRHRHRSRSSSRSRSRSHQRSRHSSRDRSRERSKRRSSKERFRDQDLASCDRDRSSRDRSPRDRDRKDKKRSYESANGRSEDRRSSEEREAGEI

The next assay concerns the target T6, efhc2_human EFHC2 (UniProt Q5JST6).
T6 sequence: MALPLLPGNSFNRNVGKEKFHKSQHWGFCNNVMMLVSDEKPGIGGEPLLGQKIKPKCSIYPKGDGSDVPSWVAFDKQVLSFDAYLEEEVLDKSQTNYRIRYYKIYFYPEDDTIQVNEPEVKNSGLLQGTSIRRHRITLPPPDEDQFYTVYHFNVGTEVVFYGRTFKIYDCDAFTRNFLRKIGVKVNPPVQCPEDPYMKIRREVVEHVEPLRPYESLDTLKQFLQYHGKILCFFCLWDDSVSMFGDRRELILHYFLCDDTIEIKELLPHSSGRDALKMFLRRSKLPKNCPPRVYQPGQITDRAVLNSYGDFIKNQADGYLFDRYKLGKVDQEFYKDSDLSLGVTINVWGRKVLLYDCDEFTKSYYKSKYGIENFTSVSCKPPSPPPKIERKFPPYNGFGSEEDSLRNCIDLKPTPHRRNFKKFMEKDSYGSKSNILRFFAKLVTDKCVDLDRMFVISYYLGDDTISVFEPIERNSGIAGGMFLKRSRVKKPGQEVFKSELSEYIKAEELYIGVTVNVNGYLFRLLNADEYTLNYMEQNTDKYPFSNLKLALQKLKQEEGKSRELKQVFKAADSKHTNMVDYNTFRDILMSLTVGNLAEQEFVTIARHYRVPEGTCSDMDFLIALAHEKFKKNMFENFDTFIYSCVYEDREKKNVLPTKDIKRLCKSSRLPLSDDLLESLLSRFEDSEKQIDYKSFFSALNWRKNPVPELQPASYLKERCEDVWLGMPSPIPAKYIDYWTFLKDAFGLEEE

The target of the next assay is T7, cep55_human CEP55 (UniProt Q53EZ4).
T7 sequence: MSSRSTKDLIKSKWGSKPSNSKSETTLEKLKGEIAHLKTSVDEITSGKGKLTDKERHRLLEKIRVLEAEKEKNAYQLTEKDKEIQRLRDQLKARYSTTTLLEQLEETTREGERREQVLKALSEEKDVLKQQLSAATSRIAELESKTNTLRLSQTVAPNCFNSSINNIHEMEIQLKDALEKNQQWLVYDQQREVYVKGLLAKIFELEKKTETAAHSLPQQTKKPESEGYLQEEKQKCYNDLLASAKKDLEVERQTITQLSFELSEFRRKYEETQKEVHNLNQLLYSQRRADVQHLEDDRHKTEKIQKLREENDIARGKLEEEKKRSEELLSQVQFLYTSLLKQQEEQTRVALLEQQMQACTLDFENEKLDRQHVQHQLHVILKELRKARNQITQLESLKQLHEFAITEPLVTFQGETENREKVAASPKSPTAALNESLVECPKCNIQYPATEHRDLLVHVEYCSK

In another assay the target is T8, creb3_human CREB3 (UniProt O43889).
T8 sequence: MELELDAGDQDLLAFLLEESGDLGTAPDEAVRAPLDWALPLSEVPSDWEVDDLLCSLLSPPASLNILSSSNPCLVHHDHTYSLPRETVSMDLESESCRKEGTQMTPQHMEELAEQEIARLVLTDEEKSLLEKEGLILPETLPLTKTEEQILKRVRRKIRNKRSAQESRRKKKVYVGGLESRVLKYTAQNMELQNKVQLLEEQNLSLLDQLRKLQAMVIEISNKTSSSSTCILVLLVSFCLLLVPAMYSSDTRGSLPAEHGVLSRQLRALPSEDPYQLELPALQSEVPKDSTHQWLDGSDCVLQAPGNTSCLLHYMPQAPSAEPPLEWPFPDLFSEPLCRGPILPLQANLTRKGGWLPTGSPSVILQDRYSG

Chain of Isoform 1 of Ectodysplasin-A (Homo sapiens), Q92838-1 P118L (Q92838 whole entry P118L, canonical isoform): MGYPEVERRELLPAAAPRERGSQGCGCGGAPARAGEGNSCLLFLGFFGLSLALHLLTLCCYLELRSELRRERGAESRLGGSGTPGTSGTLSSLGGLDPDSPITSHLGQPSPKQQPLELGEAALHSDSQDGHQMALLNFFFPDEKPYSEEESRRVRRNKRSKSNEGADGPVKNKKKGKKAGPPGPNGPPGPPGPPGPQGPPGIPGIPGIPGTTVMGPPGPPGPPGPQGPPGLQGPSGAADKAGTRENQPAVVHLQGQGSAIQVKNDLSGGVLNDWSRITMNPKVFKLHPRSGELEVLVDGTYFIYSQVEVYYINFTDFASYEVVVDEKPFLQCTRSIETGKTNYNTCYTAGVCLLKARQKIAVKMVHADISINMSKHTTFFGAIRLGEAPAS
Chain of Ectodysplasin-A (Homo sapiens), Q92838 R334H (Q92838 whole entry R334H): as the sequence (Q92838 whole entry P118L, canonical isoform) above, with L118P, R334H counted along it
Chain of Zinc finger protein 114 (Homo sapiens), Q8NC26 V207A (Q8NC26 whole entry V207A): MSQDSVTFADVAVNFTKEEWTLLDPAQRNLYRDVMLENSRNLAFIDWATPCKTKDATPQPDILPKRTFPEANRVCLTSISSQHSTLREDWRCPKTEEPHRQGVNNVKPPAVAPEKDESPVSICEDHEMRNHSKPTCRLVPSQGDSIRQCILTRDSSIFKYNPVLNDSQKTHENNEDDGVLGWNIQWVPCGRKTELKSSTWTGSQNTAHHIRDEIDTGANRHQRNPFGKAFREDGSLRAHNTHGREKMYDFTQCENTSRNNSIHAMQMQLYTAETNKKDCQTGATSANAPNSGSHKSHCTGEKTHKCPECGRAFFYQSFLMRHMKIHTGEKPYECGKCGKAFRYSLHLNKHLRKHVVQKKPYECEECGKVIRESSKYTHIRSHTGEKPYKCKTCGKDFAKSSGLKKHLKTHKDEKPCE
Chain of Rho-related GTP-binding protein RhoQ (Homo sapiens), P17081 E68K (P17081 whole entry E68K): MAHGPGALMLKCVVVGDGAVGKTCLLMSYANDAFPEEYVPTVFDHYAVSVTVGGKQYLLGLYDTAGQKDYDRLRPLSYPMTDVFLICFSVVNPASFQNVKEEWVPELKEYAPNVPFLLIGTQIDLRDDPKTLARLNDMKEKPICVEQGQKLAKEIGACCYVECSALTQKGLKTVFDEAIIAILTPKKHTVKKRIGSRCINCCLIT
Chain of sufu_human SUFU (Q9UMX1 whole entry): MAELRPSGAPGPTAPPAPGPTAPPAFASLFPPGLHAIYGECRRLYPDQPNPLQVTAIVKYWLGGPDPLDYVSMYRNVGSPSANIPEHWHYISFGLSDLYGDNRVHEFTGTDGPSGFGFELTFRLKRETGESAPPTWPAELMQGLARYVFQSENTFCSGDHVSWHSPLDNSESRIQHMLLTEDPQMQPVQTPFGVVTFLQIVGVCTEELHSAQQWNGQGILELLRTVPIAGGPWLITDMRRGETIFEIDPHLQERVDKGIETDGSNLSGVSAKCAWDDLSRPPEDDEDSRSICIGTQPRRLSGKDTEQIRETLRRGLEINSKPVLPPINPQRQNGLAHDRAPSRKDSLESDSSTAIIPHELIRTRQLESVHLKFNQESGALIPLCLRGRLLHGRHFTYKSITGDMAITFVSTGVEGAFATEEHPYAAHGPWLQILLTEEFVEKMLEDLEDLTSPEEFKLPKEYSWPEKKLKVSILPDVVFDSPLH
Chain of elmo1_human ELMO1 (Q92556 whole entry): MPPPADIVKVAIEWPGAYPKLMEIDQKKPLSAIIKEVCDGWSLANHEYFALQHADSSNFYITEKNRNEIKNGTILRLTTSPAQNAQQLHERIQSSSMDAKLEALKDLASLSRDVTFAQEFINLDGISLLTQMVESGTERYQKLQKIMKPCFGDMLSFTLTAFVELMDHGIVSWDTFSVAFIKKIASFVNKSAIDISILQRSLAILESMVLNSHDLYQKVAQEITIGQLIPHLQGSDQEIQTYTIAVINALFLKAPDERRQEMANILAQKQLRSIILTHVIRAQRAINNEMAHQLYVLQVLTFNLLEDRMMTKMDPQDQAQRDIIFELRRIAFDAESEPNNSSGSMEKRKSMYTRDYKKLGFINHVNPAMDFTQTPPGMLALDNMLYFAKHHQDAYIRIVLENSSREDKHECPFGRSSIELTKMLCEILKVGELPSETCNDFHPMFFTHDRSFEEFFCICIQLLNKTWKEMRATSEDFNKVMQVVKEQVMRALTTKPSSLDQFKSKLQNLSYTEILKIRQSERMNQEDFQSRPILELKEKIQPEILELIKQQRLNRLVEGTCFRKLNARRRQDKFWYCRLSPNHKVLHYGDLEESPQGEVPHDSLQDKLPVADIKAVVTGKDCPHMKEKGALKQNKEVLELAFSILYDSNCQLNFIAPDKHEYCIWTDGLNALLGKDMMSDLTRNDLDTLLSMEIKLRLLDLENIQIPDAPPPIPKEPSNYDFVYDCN
Chain of phs_human PCBD1 (P61457 whole entry): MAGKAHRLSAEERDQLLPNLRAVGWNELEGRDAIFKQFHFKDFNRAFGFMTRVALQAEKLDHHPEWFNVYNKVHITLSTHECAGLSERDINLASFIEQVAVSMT
Chain of clip4_human CLIP4 (Q8N3C7 whole entry): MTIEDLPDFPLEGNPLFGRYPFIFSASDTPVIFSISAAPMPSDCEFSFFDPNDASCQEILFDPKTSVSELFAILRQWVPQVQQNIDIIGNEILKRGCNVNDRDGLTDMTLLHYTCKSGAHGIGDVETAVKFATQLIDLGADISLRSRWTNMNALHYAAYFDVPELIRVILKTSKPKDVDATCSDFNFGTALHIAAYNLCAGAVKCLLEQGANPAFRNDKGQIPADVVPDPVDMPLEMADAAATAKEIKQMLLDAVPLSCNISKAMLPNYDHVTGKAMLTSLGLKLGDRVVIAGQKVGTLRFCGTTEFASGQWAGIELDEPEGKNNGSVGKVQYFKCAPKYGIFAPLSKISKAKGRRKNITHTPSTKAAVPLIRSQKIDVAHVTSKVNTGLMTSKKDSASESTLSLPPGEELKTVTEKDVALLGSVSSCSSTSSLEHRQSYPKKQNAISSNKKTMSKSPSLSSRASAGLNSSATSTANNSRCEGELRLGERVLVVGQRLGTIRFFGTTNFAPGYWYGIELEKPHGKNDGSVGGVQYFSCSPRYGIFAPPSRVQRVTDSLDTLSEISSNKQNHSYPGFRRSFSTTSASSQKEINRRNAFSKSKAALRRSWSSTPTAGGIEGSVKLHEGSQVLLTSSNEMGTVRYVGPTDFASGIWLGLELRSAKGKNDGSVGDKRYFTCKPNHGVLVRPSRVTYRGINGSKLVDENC
Chain of ppla_human PLN (P26678 whole entry): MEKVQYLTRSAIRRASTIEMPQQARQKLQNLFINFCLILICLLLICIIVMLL
Chain of cryaa_human CRYAA (P02489 whole entry): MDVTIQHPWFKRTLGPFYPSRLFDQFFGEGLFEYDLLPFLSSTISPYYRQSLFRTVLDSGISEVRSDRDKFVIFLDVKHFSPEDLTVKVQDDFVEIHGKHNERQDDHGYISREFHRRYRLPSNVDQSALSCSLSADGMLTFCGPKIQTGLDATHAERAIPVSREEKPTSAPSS
Chain of emp3_human EMP3 (P54852 whole entry): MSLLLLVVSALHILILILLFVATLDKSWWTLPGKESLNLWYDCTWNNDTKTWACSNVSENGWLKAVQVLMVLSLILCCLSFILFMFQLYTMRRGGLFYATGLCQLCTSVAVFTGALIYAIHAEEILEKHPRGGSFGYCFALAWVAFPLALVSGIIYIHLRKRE
Chain of pacn1_human PACSIN1 (Q9BY11 whole entry): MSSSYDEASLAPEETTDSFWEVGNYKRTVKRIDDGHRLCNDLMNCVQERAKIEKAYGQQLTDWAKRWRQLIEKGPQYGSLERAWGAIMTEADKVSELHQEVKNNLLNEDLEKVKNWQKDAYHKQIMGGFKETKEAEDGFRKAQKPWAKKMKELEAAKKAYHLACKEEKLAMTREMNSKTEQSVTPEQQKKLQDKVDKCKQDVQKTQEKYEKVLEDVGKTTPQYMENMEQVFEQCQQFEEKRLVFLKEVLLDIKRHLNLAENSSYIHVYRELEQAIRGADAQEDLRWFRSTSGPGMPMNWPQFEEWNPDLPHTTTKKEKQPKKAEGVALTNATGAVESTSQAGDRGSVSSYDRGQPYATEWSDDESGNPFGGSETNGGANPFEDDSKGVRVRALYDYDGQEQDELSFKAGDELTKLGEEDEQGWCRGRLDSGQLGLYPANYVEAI
Chain of vatl_human ATP6V0C (P27449 whole entry): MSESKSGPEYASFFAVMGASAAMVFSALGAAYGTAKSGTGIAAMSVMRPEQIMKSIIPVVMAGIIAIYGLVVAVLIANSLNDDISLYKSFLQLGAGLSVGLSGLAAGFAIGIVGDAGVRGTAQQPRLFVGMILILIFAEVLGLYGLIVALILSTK
Chain of npal3_human NIPAL3 (Q6P499 whole entry): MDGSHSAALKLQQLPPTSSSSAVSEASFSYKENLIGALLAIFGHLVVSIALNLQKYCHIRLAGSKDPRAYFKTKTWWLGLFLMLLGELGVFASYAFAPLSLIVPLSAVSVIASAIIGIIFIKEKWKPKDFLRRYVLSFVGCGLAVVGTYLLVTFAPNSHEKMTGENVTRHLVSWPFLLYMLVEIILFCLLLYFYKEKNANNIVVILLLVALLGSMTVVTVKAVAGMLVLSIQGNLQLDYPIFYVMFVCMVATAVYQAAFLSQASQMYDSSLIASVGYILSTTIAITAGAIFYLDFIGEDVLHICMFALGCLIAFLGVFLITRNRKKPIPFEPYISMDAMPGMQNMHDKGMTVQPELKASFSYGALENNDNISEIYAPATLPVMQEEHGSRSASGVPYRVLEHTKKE
Chain of mal_human MAL (P21145 whole entry): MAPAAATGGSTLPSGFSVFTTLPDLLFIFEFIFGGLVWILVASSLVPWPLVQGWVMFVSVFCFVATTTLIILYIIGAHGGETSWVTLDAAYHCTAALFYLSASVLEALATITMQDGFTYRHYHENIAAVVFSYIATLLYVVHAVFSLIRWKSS
Chain of lerl1_human LEPROTL1 (O95214 whole entry): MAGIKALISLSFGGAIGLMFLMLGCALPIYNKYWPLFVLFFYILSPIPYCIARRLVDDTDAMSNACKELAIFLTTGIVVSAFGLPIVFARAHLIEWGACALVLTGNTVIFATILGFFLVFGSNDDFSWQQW

For the substance “Ectodysplasin-A (Homo sapiens), Q92838 R334H”, the “effect of a mutation on the interaction” value with lerl1_human LEPROTL1 and with npal3_human NIPAL3 was “with no effect” each time.
In the case of “Regulator of G-protein signaling 3 (Homo sapiens), P49796-4 R528Q”, the “effect of a mutation on the interaction” value with pls1_human PLSCR1 is “with no effect”.
“Golgi reassembly-stacking protein 2 (Homo sapiens) (from UniProt Q9H8Y8) S441C”: the “effect of a mutation on the interaction” value was “with no effect” in the assay with zmat1_human ZMAT1; “with no effect” in the assay with cryaa_human CRYAA; “disrupting interaction strength” with prdx3_human PRDX3; “with no effect” with phs_human PCBD1; “with no effect” with acy3_human ACY3; “with no effect” with ei2ba_human EIF2B1. The “effect of a mutation on the interaction” value with dmc1_human DMC1 and with dpyl2_human DPYSL2 was “with no effect” in each case.
“Zinc finger protein with KRAB and SCAN domains 1 (Homo sapiens), P17029 R155K”: in the assay with zsc32_human ZSCAN32, the “effect of a mutation on the interaction” value is “with no effect”.
Regarding “Protein kinase C and casein kinase substrate in neurons protein 3 (Homo sapiens) (from UniProt Q9UKS6) A61V”, the “effect of a mutation on the interaction” value with pacn1_human PACSIN1 is “disrupting interaction strength”.
In the case of “Zinc finger protein 398 (Homo sapiens), Q8TD17 E87D”, the “effect of a mutation on the interaction” value in the assay with elmo1_human ELMO1 is recorded as “with no effect”.
Turning to “Serine/arginine-rich splicing factor 6 (Homo sapiens) (from UniProt Q13247-1) R145Q”, the “effect of a mutation on the interaction” value with rnps1_human RNPS1 and with lc7l2_human LUC7L2 was “with no effect” in each case.
Consider “Chloride intracellular channel protein 3 (Homo sapiens) (from UniProt O95833) M210L”, for which the “effect of a mutation on the interaction” value with efhc2_human EFHC2 was “with no effect”.
Consider “Isoform 1 of Ectodysplasin-A (Homo sapiens), Q92838-1 P118L”, for which the “effect of a mutation on the interaction” value in the assay with emp3_human EMP3, with ppla_human PLN, in the assay with mal_human MAL and with vatl_human ATP6V0C was “with no effect” in each case.
For “Ribosomal RNA small subunit methyltransferase NEP1 (Homo sapiens) (from UniProt Q92979) A34G”, the “effect of a mutation on the interaction” value with cep55_human CEP55 is given as “with no effect”.
On to “Zinc finger protein 114 (Homo sapiens), Q8NC26 V207A”, for which the “effect of a mutation on the interaction” value with clip4_human CLIP4 and with klhl2_human KLHL2 was “with no effect” each time.
Consider “Integral membrane protein 2B (Homo sapiens) (from UniProt Q9Y287) P31H”, for which the “effect of a mutation on the interaction” value with creb3_human CREB3 and with BCL2L13 was “with no effect” throughout.
On to “Rho-related GTP-binding protein RhoQ (Homo sapiens), P17081 E68K”, for which, in the assay with trip6_human TRIP6, the “effect of a mutation on the interaction” value is “with no effect”.
Consider “Integral membrane protein 2B (Homo sapiens) (from UniProt Q9Y287) I237T”, for which, in the assay with bnip3_human BNIP3, the “effect of a mutation on the interaction” value is “with no effect”.
As to “Zinc finger protein 263 (Homo sapiens), O14978 C310S”, the “effect of a mutation on the interaction” value in the assay with sufu_human SUFU was “with no effect”.
For the substance “Histone H3.3C (Homo sapiens) (from UniProt Q6NXT2) R53C”, the “effect of a mutation on the interaction” value with nasp_human NASP is recorded as “with no effect”.

The values are drawn from IntAct's records for PubMed 31515488.
